The text below walks through data of US20090142280A1.

For one data set, the target named is LL-37 (…) (human). Description: cell-based or functional assay.
In data set [1] the target is oligopeptide-10 (HB64), …-NH2. Description: cell-based or functional assay.
Data set [2] relates to LL-37 (LLGDFFRKSKEKIGKEFKRIVQRIKDFLRNLVPRTES).
Data set [3] relates to T1, oligopeptide-10 (HB64), FAKALKALLKALKAL-NH2.
T1 sequence: FAKALKALLKALKAL

Data set [4] addresses hexapeptide-21 (HB168), FALLKL-NH2. Description: cell-based or functional assay.
Data set [5] concerns the target HB1345, decanoyl-KFKWPW-NH2. Description: cell-based or functional assay.

chymotrypsin (Sigma-Aldrich) (enzyme): the Survival of peptide (1 mg/mL) with chymotrypsin 22 µg/mL, no inhibitor, LC/MS, Expt. 39 with LL-37 (…) (human) is < 1 h. The Survival of peptide (1 mg/mL) with chymotrypsin 25 µg/mL, no inhibitor, LC/MS, Expt. 34 in data set [1] was < 1 h.

Regarding elastase (Sigma-Aldrich) (enzyme), the Survival of peptide (1 mg/mL) with elastase 25 µg/mL, no inhibitor, LC/MS, Expt. 22 in data set [1] was < 1 h.

On to kallikrein (Sigma-Aldrich) (enzyme), for which, in the data set with LL-37 (…) (human), the Survival of peptide (1 mg/mL) with kallikrein 22 µg/mL, no inhibitor, LC/MS, Expt. 41 was < 4 h; the Survival of peptide (1 mg/mL) with kallikrein 22 µg/mL, no inhibitor, LC/MS, Expt. 47 was < 4 h; the Survival of peptide (1 mg/mL) with kallikrein 22 µg/mL, no inhibitor, LC/MS, Expt. 49 is < 1 h; the Survival of peptide (1 mg/mL) with kallikrein 22 µg/mL, no inhibitor, LC/MS, Expt. 55 was < 1 h. Moreover, the Survival of peptide (1 mg/mL) with kallikrein 25 µg/mL, no inhibitor, LC/MS, Expt. 27 in data set [1] was < 24 h.

plasmin (Sigma-Aldrich): the “TIC trace and mass spectrum (LC/MS) after 1-hour incubation” value in data set [2] is “the molecular weight of parent peptide LL-37 was undetectable”. In data set [3], the “TIC and XIC traces (LC/MS) after a 4-hour exposure” value was “while most of the HB64 peptide was degraded, some parent peptide could still be detected”.

With plasmin (Sigma-Aldrich) (enzyme), in the data set with LL-37 (…) (human), the Survival of peptide (1 mg/mL) with plasmin 22 µg/mL, no inhibitor, LC/MS, Expt. 37 was < 1 h and the Survival of peptide (1 mg/mL) with plasmin 22 µg/mL, no inhibitor, LC/MS, Expt. 38 is < 45 min. Also, in data set [1], the Survival of peptide (1 mg/mL) with plasmin 20 µg/mL, no inhibitor, LC/MS, Expt. 45 was < 4 h; the Survival of peptide (1 mg/mL) with plasmin 25 µg/mL, no inhibitor, LC/MS, Expt. 25 was < 4 h; the Survival of peptide (1 mg/mL) with plasmin 25 µg/mL, no inhibitor, LC/MS, Expt. 30 is < 6 h; the Survival of peptide (1 mg/mL) with plasmin 46 µg/mL, no inhibitor, LC/MS, Expt. 32 was < 4 h.

For trypsin (Sigma-Aldrich), in data set [3], the “TIC traces (LC/MS) of peptide degradation at time zero, 1 hour and 23 hours” value is “the parent peak (represents the full-length, non-degraded peptide) in the TIC traces was reduced over time and peaks for various breakdown products increased in intensity over time”.

On to trypsin (Sigma-Aldrich) (enzyme), for which the Survival of peptide (1 mg/mL) with trypsin 25 µg/mL, no inhibitor, LC/MS, Expt. 6 in data set [4] was < 1 h. Further, in data set [1], the Survival of peptide (1 mg/mL) with trypsin 25 µg/mL, no inhibitor, LC/MS, Expt. 4 was < 1 h; the Survival of peptide (1 mg/mL) with trypsin 25 µg/mL, no inhibitor, LC/MS, Expt. 10 is < 1 h; the Survival of peptide (1 mg/mL) with trypsin 25 µg/mL, no inhibitor, LC/MS, Expt. 12 is < 1 h. Moreover, the Survival of peptide (1 mg/mL) with trypsin 25 µg/mL, no inhibitor, LC/MS, Expt. 8 in data set [5] was < 1 h.

In the case of urokinase (enzyme), in the data set with LL-37 (…) (human), the Survival of peptide (1 mg/mL) with urokinase 22 µg/mL, no inhibitor, LC/MS, Expt. 51 was < 24 h and the Survival of peptide (1 mg/mL) with urokinase 22 µg/mL, no inhibitor, LC/MS, Expt. 53 is < 24 h.
